Results as given in article PMC8487046.

Experiments:
[1] = biological target: acetylated BSA (AcBSA) (bovine (from the name BSA)) (UniProt P02769); test: SPR; AcBSA immobilized (900 RU, CM5, amine coupling; BSA as reference surface), serially diluted SREC-II(44-442) or SR-F1(20-421) injected; TBS-Ca-P; 20 µL/min; 25 °C; global fit, 1:1 Langmuir model; apparent KD
[2] = biological target: full‐length SREC‐II at the surface of stably transfected CHO cells (UniProt Q96GP6); test: flow cytometry on cells; SREC-II-overexpressing CHO cells against nontransfected CHO cells, on ice, PBS with 3% BSA; C1q 80 µg/mL (40 min, detected with anti-C1q and Cy-3 anti-mouse antibodies); Alexa Fluor 488-MalBSA or Alexa Fluor 568-CRT at 1, 5 and 10 µg/mL (30 min); MFI ratio
full‐length SREC‐II at the surface of stably transfected CHO cells, sequence (Q96GP6 44-871): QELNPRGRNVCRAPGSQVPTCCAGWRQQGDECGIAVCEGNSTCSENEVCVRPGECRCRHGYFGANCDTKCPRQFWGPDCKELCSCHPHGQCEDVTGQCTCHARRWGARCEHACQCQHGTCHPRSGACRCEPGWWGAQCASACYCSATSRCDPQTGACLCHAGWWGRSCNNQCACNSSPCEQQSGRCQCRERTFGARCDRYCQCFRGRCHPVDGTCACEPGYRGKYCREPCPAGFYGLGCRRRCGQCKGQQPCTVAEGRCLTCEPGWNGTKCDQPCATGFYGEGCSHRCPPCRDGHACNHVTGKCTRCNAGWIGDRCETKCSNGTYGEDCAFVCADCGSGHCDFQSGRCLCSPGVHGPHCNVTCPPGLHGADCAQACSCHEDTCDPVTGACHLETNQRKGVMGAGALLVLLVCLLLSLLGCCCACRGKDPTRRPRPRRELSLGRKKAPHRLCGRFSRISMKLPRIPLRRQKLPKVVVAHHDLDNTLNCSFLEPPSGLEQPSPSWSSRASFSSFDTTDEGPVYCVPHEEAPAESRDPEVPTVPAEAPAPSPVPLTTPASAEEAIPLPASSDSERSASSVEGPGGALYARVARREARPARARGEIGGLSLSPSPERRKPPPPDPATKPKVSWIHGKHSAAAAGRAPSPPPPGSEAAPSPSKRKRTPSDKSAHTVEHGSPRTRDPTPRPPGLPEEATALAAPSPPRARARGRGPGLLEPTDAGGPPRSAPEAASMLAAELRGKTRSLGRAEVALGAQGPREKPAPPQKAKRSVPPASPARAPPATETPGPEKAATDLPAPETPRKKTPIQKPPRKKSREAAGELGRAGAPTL

SREC‐II(44‐442), extracellular domain of scavenger receptor expressed by endothelial cells II, sequence (Q96GP6 other isoform, or with tags, fused parts or gaps): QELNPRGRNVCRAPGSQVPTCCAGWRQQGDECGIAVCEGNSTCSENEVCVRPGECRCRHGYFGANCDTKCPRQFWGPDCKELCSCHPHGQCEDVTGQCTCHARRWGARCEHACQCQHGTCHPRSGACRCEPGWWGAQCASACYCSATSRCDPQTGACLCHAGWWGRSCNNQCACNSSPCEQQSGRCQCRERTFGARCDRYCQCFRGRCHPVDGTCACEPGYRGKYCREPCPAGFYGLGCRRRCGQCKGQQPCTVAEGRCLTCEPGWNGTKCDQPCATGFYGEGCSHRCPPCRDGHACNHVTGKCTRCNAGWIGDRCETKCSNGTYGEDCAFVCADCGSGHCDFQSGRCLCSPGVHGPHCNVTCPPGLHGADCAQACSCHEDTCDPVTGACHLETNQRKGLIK
Alexa Fluor 488‐labelled MalBSA, sequence (P02769 25-607): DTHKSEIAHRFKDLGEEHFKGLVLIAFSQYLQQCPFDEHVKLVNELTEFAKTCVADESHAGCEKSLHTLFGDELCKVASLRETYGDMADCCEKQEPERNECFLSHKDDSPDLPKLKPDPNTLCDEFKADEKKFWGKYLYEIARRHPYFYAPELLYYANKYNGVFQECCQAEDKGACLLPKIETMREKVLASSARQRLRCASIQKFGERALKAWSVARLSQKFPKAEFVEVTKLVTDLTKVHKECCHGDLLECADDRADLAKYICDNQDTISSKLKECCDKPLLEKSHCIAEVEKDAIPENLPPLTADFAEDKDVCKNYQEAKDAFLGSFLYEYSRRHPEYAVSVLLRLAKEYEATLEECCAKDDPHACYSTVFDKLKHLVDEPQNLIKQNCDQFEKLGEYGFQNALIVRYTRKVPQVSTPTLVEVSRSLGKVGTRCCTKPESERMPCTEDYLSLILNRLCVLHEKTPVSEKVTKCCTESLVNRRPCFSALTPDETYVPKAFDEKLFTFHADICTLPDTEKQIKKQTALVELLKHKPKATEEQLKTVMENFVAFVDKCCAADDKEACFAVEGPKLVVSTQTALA

Row | Substance | Kd [1] [nM] | koff [1] [s⁻¹] | kon [1] [M⁻¹ s⁻¹] | increase in binding compared with nontransfected CHO cells [2] [%]
1 | SREC‐II(44‐442), extracellular domain of scavenger receptor expressed by endothelial cells II (from UniProt Q96GP6 44-442) (domain or fragment) | 200 | 0.00015 | 7800 | –
2 | Alexa Fluor 488‐labelled MalBSA (from UniProt P02769 25-607) | – | – | – | 40 to 50
